Experiment [1] concerns the target T1, SARS-CoV-2 RBD (recombinant) (SARS-CoV-2, UniProt P0DTC2). Put plainly: ELISA.
The target of the next experiment is WIV-1 RBD (recombinant) (bat sarbecovirus WIV-1, UniProt U5WI05). Put plainly: ELISA.
Experiment [2] deals with T1, SARS-CoV-2 RBD (recombinant). Put plainly: flow cytometry on cells.
Another experiment has as its target Rs4231 RBD (recombinant) (Bat SARS-like coronavirus, isolate …, UniProt A0A2D1PXA9). Nature of the experiment: ELISA.
Experiment [3] concerns the target RacCS203 RBD (recombinant) (Bat coronavirus RacCS203). Put plainly: ELISA.

B1: V1WT_06 IgG (antibody, V domains shown)
VH: EVQLVQSGAEVKKPGASVKVSCKASGYTFSSHGISWVRQAPGQGLEWMGWISTYNGNTNSAQNLQGRVTMTADTSTSTAYMELRSLRSDDTAVYYCARGPWGYCSGTSCYYWTPDNPAYSYHGMDVWGQGTTVTVSS
VL: not shown
As to B1, in experiment [1], the “fold increase in binding of the IgG over the Fab” value is 1.3 fold.

B2: V1WT_06 Fab (Fab, V domains shown)
VH: EVQLVQSGAEVKKPGASVKVSCKASGYTFSSHGISWVRQAPGQGLEWMGWISTYNGNTNSAQNLQGRVTMTADTSTSTAYMELRSLRSDDTAVYYCARGPWGYCSGTSCYYWTPDNPAYSYHGMDVWGQGTTVTVSS
VL: not shown
Regarding B2, the binding result with WIV-1 RBD (recombinant) is “binds”.

B3: VA14_26 IgG (antibody, V domains shown)
VH: QVQLQQWGAGLLKPSDTLSLTCGISGGPFSGYYWSWIRQPPGKGLEWLGEINHSGITTYNPSLKSRGTISVDTSKRQISLKLASVTAADTAVYYCARFAYGDYGWDYSSDMDVWGKGTTVTVSS
VL: DIQLTQSPSTLSASVGDRVTITCRASQSISTWLAWHQQIPGKAPKLLIYRASTLQSGVPSRFSGSGSGTEFTLTISSLQPDDFATYYCQQYYSVRTFGQGTKVDIK
As for B3, the binding result in experiment [2] is “binds”.

B4: V1WT_41 IgG (antibody, V domains shown)
VH: QVQLQESGPGLVKPSETVSVTCTVSGGSITRSNYYWGWIRQPPGKGLEWIGSIFYNGNTNYNPSLKSRLTISVDTSKNQFSLKLSSVTAADTAVYYCARTAPYYYDRSGYYQKEEYFQRWGQGTLVTVSS
VL: EIVMTQSPSTLSASVGDRVTITCRASQSISTWLAWYQQKPGKAPNLLIYQASSLESGVPSRFSGSGSGTEFTLTISSLQPDDFATYYCQQYNNYPRTFGQGTKLEIK
For the molecule B4, the binding result (in the experiment with Rs4231 RBD (recombinant); in experiment [3]; in experiment [1]) was “binds” in each case.

These data come from publication doi:10.1101/2025.09.17.674891 (bioRxiv, 2025).
